Reference: the supplement of paper PMC10567573

B1: BTBD10 (parent)
chain: FVYENAKEGARNIRTSERVTLIVD

Variants of: B1
Test: protein stability index of a GFP-peptide fusion (GPS, HEK-293T) (PSI 1-6); higher = more stable
Details: c terminus: a fixed tail appended
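Also: lentivirally expressed fusions sorted by FACS into six bins by GFP to DsRed ratio, PSI derived from sequencing read proportions per bin multiplied by bin number.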

Variant	protein stability index
FVYENAKTGARNIRTSERVTLIVD [E8T]	2.11
FVYENAKFGARNIRTSERVTLIVD [E8F]	1.86
FVYENAKYGARNIRTSERVTLIVD [E8Y]	1.94
FVYENAKPGARNIRTSERVTLIVD [E8P]	2.44
FVYENAKMGARNIRTSERVTLIVD [E8M]	2.11
FVYENAKVGARNIRTSERVTLIVD [E8V]	1.47
FVYENAKHGARNIRTSERVTLIVD [E8H]	2.25
FVYENAKDGARNIRTSERVTLIVD [E8D]	2.28
FVYENAKSGARNIRTSERVTLIVD [E8S]	1.72
FVYENAKQGARNIRTSERVTLIVD [E8Q]	1.8
FVYENAKCGARNIRTSERVTLIVD [E8C]	2.11
FVYENAKGGARNIRTSERVTLIVD [E8G]	1.86
FVYENAKRGARNIRTSERVTLIVD [E8R]	2.83
FVYENAKLGARNIRTSERVTLIVD [E8L]	2.29
FVYENAKKGARNIRTSERVTLIVD [E8K]	1.93
FVYENAKWGARNIRTSERVTLIVD [E8W]	2.04
FVYENAKIGARNIRTSERVTLIVD [E8I]	1.87
FVYENAKNGARNIRTSERVTLIVD [E8N]	1.81
FVYENAKAGARNIRTSERVTLIVD [E8A]	1.52
FVYENAKEGARNIRASERVTLIVD [T15A]	2.26
FVYENAKEGARNIRESERVTLIVD [T15E]	2.48
FVYENAKEGARNIRDSERVTLIVD [T15D]	2.37
FVYENAKEGARNIRCSERVTLIVD [T15C]	1.91
FVYENAKEGARNISTSERVTLIVD [R14S]	2.33

Variant	protein stability index
FVYENAKEGARNIVTSERVTLIVD [R14V]	2.05
FVYENAKEGARNIMTSERVTLIVD [R14M]	2.04
FVYENAKEGARNICTSERVTLIVD [R14C]	1.83
FVYENAKEGARNIPTSERVTLIVD [R14P]	1.85
FVYENAKEGARNIKTSERVTLIVD [R14K]	1.68
FVYENAKEGARNIWTSERVTLIVD [R14W]	2.87
FVYENAKEGARNIITSERVTLIVD [R14I]	2.02
FVYENAKEGARNIHTSERVTLIVD [R14H]	1.99
FVYENAKEGARNIDTSERVTLIVD [R14D]	2.33
FVYENAKEGARNIATSERVTLIVD [R14A]	2.17
FVYENAKEGARNIGTSERVTLIVD [R14G]	1.99
FVYENAKEGARNINTSERVTLIVD [R14N]	2.32
FVYENAKEGARNIQTSERVTLIVD [R14Q]	2.08
FVYENAKEGARNITTSERVTLIVD [R14T]	2.14
FVYENAKEGARNIYTSERVTLIVD [R14Y]	2.85
FVYENAKEGARNIFTSERVTLIVD [R14F]	2.38
FVYENAKEGARNILTSERVTLIVD [R14L]	1.55
FVYENAKEGARNIETSERVTLIVD [R14E]	2.18
FVYENAIEGARNIRTSERVTLIVD [K7I]	2.5
FVYENANEGARNIRTSERVTLIVD [K7N]	2.54
FVYENAYEGARNIRTSERVTLIVD [K7Y]	1.75
FVYENACEGARNIRTSERVTLIVD [K7C]	2.32
FVYENAFEGARNIRTSERVTLIVD [K7F]	1.85
FVYENAQEGARNIRTSERVTLIVD [K7Q]	2.19

Variant	protein stability index
FVYENALEGARNIRTSERVTLIVD [K7L]	1.42
FVYENASEGARNIRTSERVTLIVD [K7S]	2.56
FVYENATEGARNIRTSERVTLIVD [K7T]	2.11
FVYENAHEGARNIRTSERVTLIVD [K7H]	1.95
FVYENAAEGARNIRTSERVTLIVD [K7A]	2.23
FVYENAGEGARNIRTSERVTLIVD [K7G]	1.99
FVYENAMEGARNIRTSERVTLIVD [K7M]	1.82
FVYENAREGARNIRTSERVTLIVD [K7R]	1.86
FVYENAEEGARNIRTSERVTLIVD [K7E]	2.74
FVYENAWEGARNIRTSERVTLIVD [K7W]	1.63
FVYENAPEGARNIRTSERVTLIVD [K7P]	2.4
FVYENAVEGARNIRTSERVTLIVD [K7V]	1.93
FVYENADEGARNIRTSERVTLIVD [K7D]	2.58
FVYENAKEGARNSRTSERVTLIVD [I13S]	2.44
FVYENAKEGARNHRTSERVTLIVD [I13H]	2.4
FVYENAKEGARNMRTSERVTLIVD [I13M]	1.64
FVYENAKEGARNVRTSERVTLIVD [I13V]	2.06
FVYENAKEGARNWRTSERVTLIVD [I13W]	1.68
FVYENAKEGARNKRTSERVTLIVD [I13K]	2
FVYENAKEGARNPRTSERVTLIVD [I13P]	2.21
FVYENAKEGARNRRTSERVTLIVD [I13R]	2.4
FVYENAKEGARNCRTSERVTLIVD [I13C]	1.8
FVYENAKEGARNQRTSERVTLIVD [I13Q]	2.38
FVYENAKEGARNERTSERVTLIVD [I13E]	2.34

Variant	protein stability index
FVYENAKEGARNNRTSERVTLIVD [I13N]	2.52
FVYENAKEGARNLRTSERVTLIVD [I13L]	2.5
FVYENAKEGARNTRTSERVTLIVD [I13T]	2.4
FVYENAKEGARNARTSERVTLIVD [I13A]	1.77
FVYENAKEGARNFRTSERVTLIVD [I13F]	2.43
FVYENAKEGARNYRTSERVTLIVD [I13Y]	2.37
FVYENAKEGARNDRTSERVTLIVD [I13D]	2.52
FVYENAKEGARNGRTSERVTLIVD [I13G]	2.31
FVYENAKEGAHNIRTSERVTLIVD [R11H]	2.16
FVYENAKEGADNIRTSERVTLIVD [R11D]	2.82
FVYENAKEGAFNIRTSERVTLIVD [R11F]	2.38
FVYENAKEGAANIRTSERVTLIVD [R11A]	2.29
FVYENAKEGAQNIRTSERVTLIVD [R11Q]	2.16
FVYENAKEGALNIRTSERVTLIVD [R11L]	2.67
FVYENAKEGAINIRTSERVTLIVD [R11I]	1.75
FVYENAKEGAENIRTSERVTLIVD [R11E]	3.09
FVYENAKEGAGNIRTSERVTLIVD [R11G]	2.31
FVYENAKEGASNIRTSERVTLIVD [R11S]	2.18
FVYENAKEGANNIRTSERVTLIVD [R11N]	1.83
FVYENAKEGAKNIRTSERVTLIVD [R11K]	1.9
FVYENAKEGAPNIRTSERVTLIVD [R11P]	1.84
FVYENAKEGATNIRTSERVTLIVD [R11T]	2.19
